Data from patent US12202907B2, “Nucleic acids encoding and methods of producing proteins comprising antibody chains” (Innate Pharma, priority 2018, dated 2025).

Experiments:
[1] = target: T1, human CD39 expressing CHO cells (CHO-huCD39) (Homo sapiens, UniProt P49961); assay: Inhibition of the enzymatic activity of cellular CD39 in CHO-huCD39; format: cell-based; conditions: qualitative
T1 construct: expressed in transfected cells; host or cells: CHO
T1 sequence (P49961 1-510): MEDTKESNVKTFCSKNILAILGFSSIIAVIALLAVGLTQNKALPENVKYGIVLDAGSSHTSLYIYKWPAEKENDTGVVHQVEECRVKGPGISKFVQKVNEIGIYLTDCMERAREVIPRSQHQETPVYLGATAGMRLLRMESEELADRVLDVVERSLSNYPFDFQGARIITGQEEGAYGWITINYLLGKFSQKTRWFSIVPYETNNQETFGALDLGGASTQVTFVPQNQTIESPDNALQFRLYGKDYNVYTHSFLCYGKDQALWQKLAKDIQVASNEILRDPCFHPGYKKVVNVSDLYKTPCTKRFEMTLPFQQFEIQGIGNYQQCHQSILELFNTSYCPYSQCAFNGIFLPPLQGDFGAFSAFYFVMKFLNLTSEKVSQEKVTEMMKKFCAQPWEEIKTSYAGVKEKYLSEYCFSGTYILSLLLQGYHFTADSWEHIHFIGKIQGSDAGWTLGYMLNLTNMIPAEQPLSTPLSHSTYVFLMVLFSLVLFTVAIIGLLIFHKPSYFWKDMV
Description: The inhibition of the CD39 enzymatic activity in CD39-expressing cells by antibodies was evaluated using Cell Titer GIo™ (Promega, reference G7571) that allows assessment of ATP hydrolysis through use of a reagent that generates a luminescent signal proportional to the amount of ATP present. The assay was thus designed to permit assessment of the inhibition of ATP hydrolyzed by CD39 in the cell culture supernatant. Briefly, 5×10^4 Ramos human lymphoma cells, 5×10^3 human CD39−, cynomolgus CD39—and mouse CD39− expressing CHO cells, were incubated 1 hour at 37° C. with anti-CD39 antibodies from 30 μg/ml to 5×10^−4 μg/ml. Cells were then incubated with 20 μM ATP for 1 additional hour at 37° C. Plates were centrifuged for 2 min at 400 g and 50 μl cell supernatant are transferred in a luminescence microplate (white wells). 50 μl CellTiter-Glo™ Reagent (CTG) was added to the supernatant and emitted light was quantified after a 5 min incubation in the dark using a Enspire™ luminometer. Anti-CD39 antibody efficacy was determined by comparing emitted light in presence of antibody with ATP alone (maximal light emission) and ATP together with cells (minimal light emission).

[2] = target: T2, Human CD39-L1 (NTPDase2, ENTPD2) (Homo sapiens, UniProt Q9Y5L3); assay: ELISA titration on CD39-L1; format: binding
T2 sequence (Q9Y5L3 1-472 isoform Q9Y5L3-2): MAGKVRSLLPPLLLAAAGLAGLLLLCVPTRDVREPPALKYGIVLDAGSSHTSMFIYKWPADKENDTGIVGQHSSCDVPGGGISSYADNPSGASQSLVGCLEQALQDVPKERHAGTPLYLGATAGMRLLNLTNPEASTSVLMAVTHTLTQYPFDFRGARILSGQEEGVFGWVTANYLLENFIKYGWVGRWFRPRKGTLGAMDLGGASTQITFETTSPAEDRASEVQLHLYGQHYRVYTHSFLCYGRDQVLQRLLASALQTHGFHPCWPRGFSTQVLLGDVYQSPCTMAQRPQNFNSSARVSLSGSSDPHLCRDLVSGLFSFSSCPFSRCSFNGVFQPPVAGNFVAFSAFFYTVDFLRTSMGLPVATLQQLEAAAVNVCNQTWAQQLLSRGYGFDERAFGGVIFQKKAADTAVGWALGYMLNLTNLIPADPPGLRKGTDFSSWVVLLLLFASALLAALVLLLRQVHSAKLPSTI
Description: Antibody I-394 was tested for binding to recombinant human CD39 isoforms (Rec-huCD39 isoforms) having amino acid sequences shown below were coated in 96-well plate in PBS 1X at 500 ng/ml or 1 μg/ml at 4° C. overnight. Wells were washed in TBS Tween® 20 (polysorbate 20), and further saturated 2H at RT in TBS Blocking buffer. Dose range concentration of primary antibody was incubated in TBS blocking buffer for 2 h at RT. Wells were washed in TBS Tween® 20 (polysorbate 20). […] Optical density was measured on Enspire™ at OD=450.

“I-394: anti-CD39 antibody, VH SEQ ID NO: 6, VL SEQ ID NO: 7, human IgG1 Fc with L234A/L235E/G237A/A330S/P331S” was tested, and the “blocking CD39 enzymatic activity in CHO-huCD39” value [1] was “blocks CD39 enzymatic activity” and the “binding to CD39-L1 in ELISA” value [2] was “not to any of the isoforms CD39-L1, -L2, -L3 or -L4”.
